B1: CPEB3 Ribozyme (parent)
chain: UAACAGGGGGCCACAGCAGAAGCGUUCACGUCGCAGCCCCUGUCAGAUUCUGGUGAAUCUGCGAAUUCUGCUGUAUAUCUC

Variants of: B1
Test: self-cleavage, relative activity (ratio to wild type); higher = more cleavage; in vitro, sequencing
Summary of the method: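 After error-prone PCR and barcoding, CPEB3 ribozyme mutant libraries were transcribed with T7 RNA polymerase at 37°C for 5 hours, then given 15 min with DNase I before an EDTA stop, and they cleaved during both steps. Reverse transcription with template switching preceded Illumina sequencing. Relative activity divides a variant's cleaved/total read fraction by the unmutated ribozyme's. At least 5 reads were required per variant, and three batches were averaged.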

| Variant | self-cleavage |
| --- | --- |
| C12A U41G | 0.36 |
| C12A U41C | 0.99 |
| C11G G19C | 0.48 |
| C12U C27A | 0.46 |
| C11A U58C | 0.43 |
| C11G A57U | 0.39 |
| C11G A57G | 0.43 |
| C11U U25A | 0.38 |
| C11U U25C | 0.22 |
| C11U A75U | 0.43 |
| C11U A75G | 0.32 |
| C12A G52A | 1.23 |
| C12A U78A | 1.21 |
| C12A U78C | 1.04 |
| C11U G33C | 0.14 |
| C11U G33U | 0.19 |
| C11U G33A | 0.42 |
| C11U A45U | 0.27 |
| C11U A45G | 0.2 |
| C12G A18G | 0.17 |
| C12G A18U | 0.35 |
| C12U A56G | 1.13 |
| C12A C62G | 0.24 |
| C12A C62A | 0.71 |

| Variant | self-cleavage |
| --- | --- |
| C11U U67C | 0.18 |
| C11U U67G | 0.18 |
| C11U U67A | 0.36 |
| C12A A56G | 0.87 |
| C12A A56U | 0.81 |
| C12A C79A | 1.28 |
| C12G A28U | 0.26 |
| C11G C14U | 0.93 |
| C12G U69C | 0.11 |
| C12G U69A | 0.3 |
| C11A U74C | 0.6 |
| C11U C12U | 0.56 |
| C12G U41G | 0.14 |
| C12G U41C | 1.09 |
| C11U A47G | 0.36 |
| C11U A47U | 0.31 |
| C12G C50G | 0.28 |
| C12G A64U | 0.13 |
| C11G U48C | 0.11 |
| C12G U31C | 0.92 |
| C12G C38A | 0.36 |
| C12A U80C | 1.23 |
| C11U C32A | 0.2 |
| C11G U54A | 0.28 |

| Variant | self-cleavage |
| --- | --- |
| C11G U54C | 0.49 |
| C11U A56G | 0.32 |
| C11U A56U | 0.33 |
| C12A U26A | 1.08 |
| C11G G46U | 0.1 |
| C11G G30U | 0.09 |
| C12A A47G | 1.17 |
| C12U A15U | 1.23 |
| C12U A15G | 0.86 |
| C12U A75U | 1.28 |
| C12U A75G | 1.3 |
| C12A A28U | 0.92 |
| C12A A28G | 0.59 |
| C12A A28C | 0.57 |
| C11U U49C | 0.24 |
| C11U U49A | 0.32 |
| C11U A20U | 0.28 |
| C11U A20G | 0.43 |
| C11G U67G | 0.2 |
| C11G U67C | 0.16 |
| C11G U67A | 0.27 |
| C12A U67C | 0.33 |
| C12A U67A | 0.69 |
| C11U C50U | 0.4 |

| Variant | self-cleavage |
| --- | --- |
| C12G A13G | 0.71 |
| C12G A13C | 0.72 |
| C12G A13U | 1.14 |
| C11A U67C | 0.09 |
| C11A U67A | 0.17 |
| C12U C14U | 1.25 |
| C12A U72C | 1.19 |
| C12A C68G | 0.52 |
| C12A U43A | 0.99 |
| C11A U69C | 0.17 |
| C12U A35G | 1.15 |
| C12U A35C | 0.85 |
| C12U A35U | 1.06 |
| C11U G19U | 0.07 |
| C11G U66A | 0.49 |
| C11G U66C | 0.21 |
| C12G U67C | 0.08 |
| C12G U67G | 0.12 |
| C12G U67A | 0.23 |
| C11G C32U | 0.16 |
| C11G C32A | 0.31 |
| C11A U78C | 0.31 |
| C11A U78A | 0.47 |
| C12G C27U | 0.18 |

| Variant | self-cleavage |
| --- | --- |
| C12G C27A | 0.09 |
| C11G A20G | 0.56 |
| C11G A20U | 0.12 |
| C12A U31A | 0.65 |
| C12A U31C | 1.14 |
| C12U | 1.25 |
| C12A | 1.15 |
| C12G | 0.59 |
| C11U U76C | 0.43 |
| C11G A35G | 0.56 |
| C11G A35C | 0.33 |
| C11G A35U | 0.18 |
| C11U U48C | 0.31 |
| C11U U48A | 0.24 |
| C11U A28U | 0.34 |
| C12A A45U | 0.49 |
| C12A A45G | 1.04 |
| C11U U31A | 0.32 |
| C11U U31C | 0.29 |
| C11U U31G | 0.23 |
| C11U C38A | 0.06 |
| C12A A20G | 1.17 |
| C12A A20U | 0.32 |
| C11G G55U | 0.55 |

| Variant | self-cleavage |
| --- | --- |
| C11G G55A | 0.14 |
| C11G A56C | 0.38 |
| C11G A56U | 0.28 |
| C11U A57G | 0.33 |
| C11A U80C | 0.5 |
| C11A U72A | 0.15 |
| C11A U72C | 0.52 |
| C11G A64U | 0.16 |
| C11G A64G | 0.4 |
| C12A U74G | 1.28 |
| C11G U51C | 0.41 |
| C11G U51A | 0.31 |
| C11G A15C | 0.62 |
| C11G A15U | 0.39 |
| C11G A15G | 0.58 |
| C12A A64U | 0.56 |
| C12A A64G | 1.21 |
| C11G C17U | 0.19 |
| C12G G52A | 0.49 |
| C11U G24A | 0.22 |
| C11G G63U | 0.66 |
| C12U A47G | 1.17 |
| C12U A47C | 0.76 |
| C12U A47U | 0.83 |

| Variant | self-cleavage |
| --- | --- |
| C12A C17G | 0.16 |
| C11G A45U | 0.23 |
| C11G A45C | 0.07 |
| C11G A45G | 0.35 |
| C11G U49G | 0.31 |
| C11G U49A | 0.6 |
| C11G U41A | 0.25 |
| C11G U41C | 0.67 |
| C12U A21G | 0.86 |
| C12U A21U | 1 |
| C11G A18U | 0.39 |
| C11G A18G | 0.54 |
| C11U U54A | 0.45 |
| C11U U54C | 0.43 |
| C11U A65U | 0.33 |
| C11U A65G | 0.2 |
| C11U A18G | 0.31 |
| C11U A18C | 0.39 |
| C11U A18U | 0.24 |
| C12A A65G | 0.44 |
| C12A A65C | 0.32 |
| C12G C17G | 0.27 |
| C12U A57G | 1.26 |
